From patent US10865390B2, “Alcohol dehydrogenase mutant and application thereof in synthesis of diaryl chiral alcohols” (Jiangnan University, priority 2018, dated 2020) come the findings set out here.

Numbering of substitutions follows the chain as printed. Names may count otherwise. “And” between values parts separate entries of the source, which are not always exact repeats. Identical values can stand only once.

Common to all, as to assay type: biochemical
In data set [1] the test system is O=C(c1ccc(Cl)cc1)c1ccccn1. Nature of the data set: Kinetic analysis of KpADH mutant M3 with CPMK. The note with it: other: M3, NADPH, pH 7.0, 30° C. On the procedure: In an embodiment of the present disclosure, the mutant includes the substitution of glycine for glutamic acid at position 214 of the alcohol dehydrogenase with the amino acid sequence shown in SEQ ID No. 2, and the substitution of cysteine for serine at position 237, which is named M3.
(§1) Adopting a total reaction system of 200 μL including: 1.0 mM NADPH, 1.0 mM substrate CPMK and sodium phosphate buffer (PBS, 100 mM, pH 7.0), fully and evenly mixing, maintaining at 30° C. for 2 min, adding an appropriate amount of enzyme solution, and detecting the change in light absorption at 340 nm.
(§2) The enzyme activity was calculated by the following formula: Enzyme activity (U)=EW×V×10^3/(6220×1);
(§3) in the formula, EW is the change in absorbance at 340 nm in 1 min; V is the volume of a reaction solution in mL; 6220 is the molar extinction coefficient of NADPH in L/(mol·cm); and 1 is the optical path distance in cm. One activity unit (U) corresponds to the amount of enzyme required to catalyze the oxidation of 1 μmol NADPH per minute under the above conditions.
(§4) A column used for purification was a nickel affinity column HisTrap FF crude, and purification was achieved through affinity chromatography using a histidine tag on recombinant protein. The nickel column was equilibrated with a solution A first, a crude enzyme solution was loaded, a penetrating peak was further eluted off using the solution A, and after equilibrium, a solution B (20 mM sodium phosphate, 500 mM NaCl, and 1000 mM imidazole, pH 7.4) was used for gradient elution to elute off the recombinant protein bound to the nickel column, so as to obtain the recombinant alcohol dehydrogenase mutant. The purified protein was subjected to activity measurement (CPMK as substrate, and NADPH as coenzyme) and SDS-PAGE analysis. […] The purified alcohol dehydrogenase protein was then replaced into a Tris-HCl (100 mM, pH 7.0) buffer using a Hi Trap Desalting column (GE Healthcare).
(§5) The activity of KpADH at different substrate concentrations and coenzyme concentrations was determined, and a double reciprocal curve was made based on the reciprocal of activity and substrate concentration to calculate kinetic parameters.

In data set [2] the test system is O=C(c1ccc(Cl)cc1)c1ccccn1. In words: Kinetic analysis of KpADH mutant M2 with CPMK. The settings on record: other: M2, NADPH, pH 7.0, 30° C. On the procedure:
In an embodiment of the present disclosure, the mutant includes the substitution of valine for glutamic acid at position 214 of the alcohol dehydrogenase with the amino acid sequence shown in SEQ ID No. 2, which is named M2.
as §1, §2, §3, §4, §5

In data set [3] the test system is O=C(c1ccc(Cl)cc1)c1ccccn1. Nature of the data set: Kinetic analysis of KpADH mutant M4 with CPMK. The note with it: other: M4, NADPH, pH 7.0, 30° C. Here is the method:
In an embodiment of the present disclosure, the mutant includes the substitution of glycine for glutamic acid at position 214 of the amino acid sequence shown in SEQ ID No. 2, the substitution of cysteine for serine at position 237, and the substitution of asparaginate for glutamine at position 136, which is named M4.
as §1, §2, §3, §4, §5

Data set [4] can be described thus: Stereoselectivity analysis of CPMK reduction (chiral liquid chromatography, Table 1). The note with it: product CPMA from CPMK. Here is the method:
(§6) In an embodiment of the present disclosure, the (R)- and (S)-CPMA is chromatographed by taking 100 μL reaction solution, adding 500 μL ethyl acetate, shaking for 1-2 min, centrifuging at 12,000 rpm for 2-5 min, placing a supernatant into a centrifuge tube, and after an organic phase is naturally volatilized completely, adding 500 μL chromatographic pure ethanol for chiral liquid chromatography of a conversion rate and an ee value. The specific chromatographic conditions are as follows: Daicel Chiralcel OB-H (5 μm, 250 mm×4.6 mm) liquid chromatography column, mobile phases are n-hexane: ethanol: ethanolamine (90:10:0.01, v/v/v), the flow rate is 1 mL/min, the column temperature is 30° C., the UV detection wavelength is 254 nm, the injection volume is 10 μL, and the retention time for (R)-CPMA and that for (S)-CPMA are 11.14 min and 12.34 min respectively.
Method for determining optical purity ee:
As: molar concentration of (S)-CPMA obtained by liquid chromatography; and AR: molar concentration of (R)-CPMA obtained by liquid chromatography.
as §5

The nature of data set [5]: 20 mL biocatalytic system: asymmetric reduction of CPMK. The note with it: for ee value of final reduction product: 20 mL biocatalytic system, enzyme 10 g/L, 30° C., pH 7.5; for time required to achieve a conversion rate close to 99.9%: CPMK concentration 200 mM. Here is the method:
as §6
A 20 mL biocatalytic system was established: 100 mM potassium phosphate buffer (pH 7.0), and the alcohol dehydrogenase mutants M6 and M7 obtained in Example 2 as well as wild KpADH 10 g/L, CPMK 100 mM, 200 mM and 500 mM were added (substrate added in batches). […]

Data set [6] in a line: Substrate specificity: reduction of prochiral carbonyl compound (Table 2). The text has this: The reduction on prochiral carbonyl compounds by the alcohol dehydrogenase mutants obtained in Example 2 was studied, and the studied prochiral carbonyl compounds include (4-chlorophenyl)-(pyridin-2-yl)-methanone (CPMK), phenyl-(pyridin-2-yl)-methanone, (4-chlorophenyl)-(phenyl)-methanone, (4-bromophenyl)-(phenyl)-methanone, (4-fluorophenyl)-(pyridin-2-yl)-methanone, (4-methoxyphenyl)-(phenyl)-methanone, acetophenone, 4-chloroacetophenone and 2-(4-chlorophenyl)acetyl chloride.

Where [7] appears, read: CPMK 100 mM, reaction time 12 h.
Setting [8] is: CPMK 100 mM, reaction time 24 h.
Setting [9] is: CPMK 200 mM, reaction time 12 h.
Setting [10] is: CPMK 200 mM, reaction time 24 h.
[11] abbreviates: CPMK 500 mM, reaction time 12 h.
The mark [12] stands for this setting: CPMK 500 mM, reaction time 24 h.

By Km is commonly meant the concentration of substrate that gives half-maximal velocity. As a reminder, the Vmax is the top rate of the reaction or transport when substrate is in excess. What is called kcat is the maximal rate divided by the concentration of active sites. As usually defined, the kcat/Km is the turnover number divided by the Michaelis constant. As for “alcohol dehydrogenase KpADH mutant M3 (E214G/S237C of SEQ ID No. 2) (Vanderwaltozyma polyspora DSM 70294; E214G/S237C)”, in data set [1], the Michaelis constant (Km) stood at 632 µM, the Vmax came to 9.32 µmol/min/mg, the catalytic constant (kcat) was 6.16 s⁻¹ and the catalytic efficiency (kcat/Km) was 9740 M⁻¹ s⁻¹.

On to “alcohol dehydrogenase KpADH mutant M2 (E214V of SEQ ID No. 2) (Vanderwaltozyma polyspora DSM 70294; E214V)”, for which, in data set [2], the Michaelis-Menten constant (Km) is 574 µM, the maximum rate (Vmax) is 17.5 µmol/min/mg, the kcat is 11.7 s⁻¹ and the kcat/Km came out at 14200 M⁻¹ s⁻¹.

Take “alcohol dehydrogenase KpADH mutant M4 (E214G/S237C/Q136N of SEQ ID No. 2) (Vanderwaltozyma polyspora DSM 70294; E214G/Q136N/S237C)”: in data set [3], the Michaelis-Menten constant (Km) is 861 µM, the Vmax turned out to be 10.2 µmol/min/mg, the turnover number (kcat) was determined as 6.76 s⁻¹ and the kcat/Km was 7850 M⁻¹ s⁻¹.

B1: M6: alcohol dehydrogenase mutant E214G, S237C, Q136N, S196G, F161V of SEQ ID No. 2 (protein)
chain: MSVLISGASGYIAKHIVRVLLEQNYKVIGTVRSQDKADKLLKQYNNPNLSYEIVPEIANLDAFDDIFKKHGKEIKYVIHAASPVNFGAKDLEKDLVIPAINGTKNMFEAIKKYAPDTVERVVMTASYASIMTPHRNNDPTLTLDEETWNPVTEENAYENVVTAYCASKTFAEKEAWKFVKENSDAVKFKLTTIHPGFVFGPQNFDEDVTKKLNGTCEIINGLLHAPFDTKVEKTHFCQFIDVRDVAKTHVLGFQKDELINQRLLLCNGAFSQQDIVNVFNEDFPELKGQFPPEDKDTDLNKGVTGCKIDNEKTKKLLAFEFTPFHKTIHDTVYQILHKEGRV
modifications: Protein translated from synthetic DNA
B1: the ee in data set [4] was 97.8% and 99.8%. Besides, the “ee value of final reduction product” value in data set [5] is on record as 99.5%. The Conversion rate came to 24.6% in data set [5] (CPMK 100 mM, reaction time 1 h); 54.6% in data set [5] (CPMK 100 mM, reaction time 2 h); 69.4% in data set [5] (CPMK 100 mM, reaction time 3 h); 80.2% in data set [5] (CPMK 100 mM, reaction time 4 h); 95.2% in data set [5] (CPMK 100 mM, reaction time 6 h); 97.2% in data set [5] (CPMK 100 mM, reaction time 8 h). The Conversion rate in data set [5] (setting [7]) is on record as 98.2%; in data set [5] (setting [8]), 99.6%; in data set [5] (CPMK 200 mM, reaction time 1 h), 19.1%; in data set [5] (CPMK 200 mM, reaction time 2 h), 36.4%; in data set [5] (CPMK 200 mM, reaction time 3 h) it was 52.8%; in data set [5] (CPMK 200 mM, reaction time 4 h) it was 70.6%. Further, the Conversion rate came to 89.7% in data set [5] (CPMK 200 mM, reaction time 6 h); 92.2% in data set [5] (CPMK 200 mM, reaction time 8 h); 95.4% in data set [5] (setting [9]); 99.2% in data set [5] (setting [10]); 12.8% in data set [5] (CPMK 500 mM, reaction time 1 h); 22.1% in data set [5] (CPMK 500 mM, reaction time 2 h). The Conversion rate turned out to be 30.6% in data set [5] (CPMK 500 mM, reaction time 3 h); 65.3% in data set [5] (CPMK 500 mM, reaction time 4 h); 77.9% in data set [5] (CPMK 500 mM, reaction time 6 h); 87.6% in data set [5] (CPMK 500 mM, reaction time 8 h); 90.2% in data set [5] (setting [11]); 99.5% in data set [5] (setting [12]). Also, the “time required to achieve a conversion rate close to 99.9%” value in data set [5] was determined as 24 h. In addition, the “ee value of product” value worked out at 6.81% in data set [6] (substrate drawing 2); 91.7% in data set [6] (substrate drawing 3); 64.2% in data set [6] (substrate drawing 5); 95.3% in data set [6] (substrate drawing 7); 82.1% in data set [6] (substrate drawing 8).

B2: KpADH: wild type alcohol dehydrogenase KpADH, amino acid sequence shown in SEQ ID No. 2 (protein)
chain: B1 chain with N136Q, V161F, G196S, G214E, C237S
modifications: Protein translated from synthetic DNA
Regarding B2, in data set [4], the ee was 82% and 82.5%. Moreover, the “ee value of final reduction product” value in data set [5] is listed as 82%. Also, the Conversion rate in data set [5] (CPMK 100 mM, reaction time 1 h) is 47.76%; in data set [5] (CPMK 100 mM, reaction time 2 h), 77.9%; in data set [5] (CPMK 100 mM, reaction time 3 h), 87.1%; in data set [5] (CPMK 100 mM, reaction time 4 h), 96.5%; in data set [5] (CPMK 100 mM, reaction time 6 h), 98.7%; in data set [5] (CPMK 100 mM, reaction time 8 h) it was 99.6%. In addition, the Conversion rate in data set [5] (setting [7]) is reported as greater than 99.9%; in data set [5] (setting [8]) it was greater than 99.9%; in data set [5] (CPMK 200 mM, reaction time 1 h) it was 25.6%; in data set [5] (CPMK 200 mM, reaction time 2 h) it was 36.9%; in data set [5] (CPMK 200 mM, reaction time 3 h) it was 50.5%; in data set [5] (CPMK 200 mM, reaction time 4 h) it was 62.8%. Moreover, the Conversion rate is given as 85.3% in data set [5] (CPMK 200 mM, reaction time 6 h); 97.4% in data set [5] (CPMK 200 mM, reaction time 8 h); 99.4% in data set [5] (setting [9]); 99.7% in data set [5] (setting [10]); 11.7% in data set [5] (CPMK 500 mM, reaction time 1 h); 20.1% in data set [5] (CPMK 500 mM, reaction time 2 h). In addition, the Conversion rate in data set [5] (CPMK 500 mM, reaction time 3 h) worked out at 44.8%; in data set [5] (CPMK 500 mM, reaction time 4 h) it was 59.6%; in data set [5] (CPMK 500 mM, reaction time 6 h), 80.2%; in data set [5] (CPMK 500 mM, reaction time 8 h) it was 93.2%; in data set [5] (setting [11]), 95.6%; in data set [5] (setting [12]) it was 99.2%. Further, the “time required to achieve a conversion rate close to 99.9%” value in data set [5] is on record as 12 h. Besides, the “ee value of product” value in data set [6] (substrate drawing 1 (CPMK)) was 81.9%; in data set [6] (substrate drawing 2) it was 26.3%; in data set [6] (substrate drawing 3), 71.4%; in data set [6] (substrate drawing 4), 69.2%; in data set [6] (substrate drawing 5), 25.3%; in data set [6] (substrate drawing 6), 14.9%. The entries for the “ee value of product” value in data set [6] (substrate drawing 7), in data set [6] (substrate drawing 8) and in data set [6] (substrate drawing 9) were 59.2%, 67.1% and 77.8%, respectively.
